Assays:
Assay in all cases: In vitro binding of neoantigens to class I MHC (UV peptide exchange, HLA class I ELISA)
Conditions in all cases: 100% = same binding affinity as positive control peptide
HLA-A*01:01 = HLA-A*01:01 (Homo sapiens, UniProt P04439, A114D/A174V/A182V/D101N/D185E/E176A/E190D/L180R/Q94H/R68K/S129P/T187R/V100A/V91M/W191G)
How it was run: (§1)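 Conditional biotinylated HLA class I complexes were UV-irradiated with candidate 9-mer peptides to drive peptide exchange, alongside a positive-control (Pos) peptide and a no-peptide UV control. Intact complexes were captured on streptavidin and detected with an HRP anti-B2M antibody, read as absorbance. Binding is expressed as exchange percentage relative to Pos.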

HLA-A*03:01 = HLA-A*03:01 (Homo sapiens, UniProt P04439)
How it was run: as §1

HLA-A*24:02 = HLA-A*24:02 (Homo sapiens, UniProt P04439, D101N/D140Y/D185E/E176V/E190D/F33S/G103R/G107R/I119L/I121M/I306V/K335N/L105A/L180Q/L300P/N151K/N90K/Q86E/Q94H/R106L/R138H/R89G/T104I/T345S/V100E/W191G/Y123F)
How it was run: as §1

HLA-B*07:02 = HLA-B*07:02 (Homo sapiens, UniProt P01889)
How it was run: as §1

HLA-B*08:01 = HLA-B*08:01 (Homo sapiens, UniProt P01889, A93T/A95T/D138N/E176V/E187T/K202T/Q94N/R180D/S35A/V36M/Y33D/Y91F)
How it was run: as §1

Row | Sequence | Exchange rate with the allele specific Pos peptide, HLA-A*01:01 (HLA-A*01:01) [%] | Exchange rate with the allele specific Pos peptide, HLA-A*03:01 (HLA-A*03:01) [%] | Exchange rate with the allele specific Pos peptide, HLA-A*24:02 (HLA-A*24:02) [%] | Exchange rate with the allele specific Pos peptide, HLA-B*07:02 (HLA-B*07:02) [%] | Exchange rate with the allele specific Pos peptide, HLA-B*08:01 (HLA-B*08:01) [%]
1 | SLYHREKQLIAMDSAI [Neoantigen P22] | 4.4 | 4.8 | 0 | 8.3 | 3.9
2 | YEAGMTLGEKFRVGNCKHLKMTRP [Neoantigen P82] | 1.5 | 58.1 | −0.1 | 12.9 | 1.4
3 | YEAGMTLGGKILFFLFLLLPLSPFSLIF [Neoantigen P87] | 1.1 | 2.4 | 0.2 | 5 | 3.1

From patent US20230035403A1, “Method For Determining Responsiveness To Prostate Cancer Treatment” (Janssen Biotech, Inc., priority 2020, published 2023)
